These results are taken from patent US20050164945A1, “Endotheliase-1 ligands” (priority 2003, published 2005).

Test [1] concerns the target T1, recombinant endotheliase 1 (human), Q9UL52.
T1 chain: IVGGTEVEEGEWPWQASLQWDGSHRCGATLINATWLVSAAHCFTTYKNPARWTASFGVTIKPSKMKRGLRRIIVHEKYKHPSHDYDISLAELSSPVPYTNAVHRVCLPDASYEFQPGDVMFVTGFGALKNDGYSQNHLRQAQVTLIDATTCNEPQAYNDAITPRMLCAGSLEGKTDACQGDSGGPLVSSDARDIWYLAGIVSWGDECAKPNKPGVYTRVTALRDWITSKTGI
The experiment in a line: cell-based or functional assay.

The target in test [2] is T1, recombinant endotheliase 1 (human), …. The experiment in a line: inhibition of ET1 activity.

In general, Ki refers to a measure of affinity in units of concentration, obtained from inhibition or displacement.

B1: DX-1135 (peptide)
peptide: AGWPTCRGFWPDCGMMGT
modifications: not checked
In the case of B1, in test [1], the ET1 IC50 is 47 nM. In test [2], the inhibition constant Ki fell in the range of 100 to 1000 nM.

B2: DX-1133 (peptide)
peptide: AGNYMCKGYWPDCKMTGT
modifications: not checked
As for B2, the ET1 IC50 in test [1] is 350 nM.

B3: DX-1051 (peptide)
peptide: AGVQHCESRDLPCLIKGT
modifications: not checked
As to B3, the ET1 IC50 in test [1] is 770 nM. For the same molecule, the Ki in test [2] lay within 100 to 1000 nM.
